Test: label from the status in PepcDB records

Sequence | protein production
DVTEQKQAEAELHQRDRLLQAVAEAANWLVVEMNYDTAIEKALAVVGEAAQADRAYLFKNHPHPITGKRAVSLQFEWYGSDLQPSIQDWQNQLYQSTELSRWYSVLSSGKSINELRRKLPVAERELLERQGIQSLLLVPLGLEDQFWGYLGLADCTQERYWSRHEESTLLTMAASISGAWQRQQVEEKIRYQALHDL | not failed
DYFTTTNSIPPVITTNHRRKHSIEKFYRDQLGSIIWNEEDVGHQQVPEINKHGYRAAVKIIVIIDNMERKAAIQSRQSYDEALRYGAVLIFLPGIYEIDT | failed
EAPVRVIVVHGLGTHSGALWPLVAAIEGADLAAIDLPKTPLYDDWLRLLESFISSEDDGRPLILIGAGTGGLLCAEAAHRTGLVAHVIATCLLNPSDQPTRRALFRFSPLTRLIQGRLRNREIPVTRVLNFSKISRSPALSKLCAADEFSGASKITWGFLASYVQHKAKLGAVPVTLMHPDHDLLTPVELSLRTLSRLKAPTDVVMLKDCGHFPIEEPGFTTMLETVTSVIARNS | failed
EDGLFSVVLPFMSSFLLDPNAADPGYLKTRDYLTYNGVTTVADMNTGGTNWELEISALKRNLDTPESPIRVRLTPDVMKLAAALKSPEAAMTLVNQMKQHNTDNLVFNGGIKLFADGAMFSQAMQINAPGYIDGHKGEWITQPSSFVEFARSYWNAGYQIHVHTNGDGGAKMVLDTLQELENDKPRADHRFTVEHYGYADDGTSRRIAKLDAQVSANPFYLFDLGDRYAENGLGFDRAARIAPLGGLASRNVPVALHSDFPMAPAEPLFLAWTAMSRETLSGKVFSPSERLTLDQAIRAITIDAAYMIGMENE | failed
EDKKGGTKPSNEAALTKTENLDFRLSFNKIKVTTDQNHFSGGTSIEQLKQWFGDPNKSEQRNAGNITLDSYTWVKDGAVINAQLYKNSTVARSISNFSFSREAKIGKEDYDELKIGESYKKVVEKLGEPDVLSQSMSSDKEEMQTVWSSGIKTKSSSATIELYFENGLLKNKTQKDLE | not failed
EDYEKVPLPNSVFVNTTESCEVERLFKATSPRGEPQDGLYCIRNSSTKSGKVLVVWDETSNKVRNYRIFEKDSKFYLEGEVLFVSVGSMVEHYHTHVLPSHQSLLLRHPYGYT | not failed
EEDWVLPSEVEVLESIYLDELQVIKGNGRTSPWEIYITLHPATAEDQDSQYVCFTLVLQVPAEYPHEVPQISIRNPRGLSDEQIHTILQVLGHVAKAGLGTAMLYELIEKGKEILTDNNIPHGQ | not failed
EEELPFKVLGDGSYLFEGKTSLSDVRHYLDLPENAFGELGDEVDTLSGLFLEIKQELPHVGDTAVYEPFRFQVTQMDKRRIIEIKIFPFE | not failed
EEGNSSELPLSAEDAKKLTELAENVLQGWDVQAEKIDVIQGNQMALVWKVHTDSGAVCLKRIHRPEKKALFSIFAQDYLAKKGMNVPGILPNKKGSLYSKHGSFLFVVYDWIEGRPFELTVKQDLEFIMKGLADFHTASVGYQPPNGVPIFTKLGRWPNHYTKRCKQMETWKLMAEAEKEDPFSQLYLQEIDGFIEDGLRIKDRLLQSTYVPWTEQLKKSPNLCHQDYGTGNTLLGENEQIWVIDLDTVSFDLPIRDLRKMIIPLLDTTGVWDDETFNVMLNAYESRAPLTEEQKQVMFIDMLFPYELYDVIREKYVRKSALPKEELESAFEYERIKANALRQLI | not failed
EEHPRAWIISVGNELLIGRTINTNAAWLGSRLTLLGFEVERVVTVPDRVEDIAEEVGRALGRARVVITTGGLGPTYDDVTLQGVAMALGRGLKLHPGALEMVRRFYSKRGLGLTEDRVKMAMLPDGAEPLENPVGAAPGAVVEARGSLVASLPGVPSEMEAMFEKALRPLLEEIAPPGAVVECGIAVVGVPESSLAPYIKEASRVSPRVYVKSHPQGSEIGKPLVR | failed
EEPTIGDIYNGKVTSIMQFGCFVQLEGLRKRWEGLVHISELRREGRVANVADVVSKGQRVKVKVLSFTGTKTSLSMKDVDQETGEDLNPNRRRNLV | not failed
EERRVAYPVLRELTERTGETSALMVWNGNESMCVEQIPSRHQVKHLAPLGARYNEALSSSVQVFLASENEDRVRQLLRSGSITLTGVDEDAVEAYLLRLKESMERGWAVNFGETSIEEVGVASPVYDHRGNMVASVLIPAPKFRVSQDTLNSLGEACAAAAAKVTTRLGGRAPH | not failed
EETRTEVEKKNYMNNAEEAKDVLLGVYRTNTLDAMYGYYLSILFNLGTDISQVEGSGNENFRIIPTNSFPTTQSEVQQTWAALYTGIYRANDFLERISNKIGSYTTTDKKLATLYIAEARALRGMFYFELVRRFGNVVLMTSTQMSNQNPATYVQSAPEKVYEYIEDDLLYACDILPYATDDQYRESNDYRFSKGAALGLLTKVYATWAGYPVKDESKWEAAAKTARILVESGKHGLLKDYEQLWKNTCNGTWDPTESLIEISFYSPTVSGNSDPVGRIGKWNGVKTTAIAGVRGSCAANVKVVHTFVLDWREDVSDIRRDLSIANYQYTDTKKSLWVAGASDTDESAAEKDADPTKAQKNKQNYTPAKWDIQKYVTTNSFINNDKSNVNWYFLRYADVLLLYAEALNEWKHGPDAEAYNAINAVRRRGYGNPSNTSACDLPQGLDETSFREAVRKERSYELSFEGHRRQDLIRWGIYYKTVQATAKELGYWWEGTGSPNYSVATYTEEGKHELFPIPQRDMDLCIQFNQNPKW | not failed
EGDPENGEKLQITIRRGKDGFGFTICCDSPVRVQAVDSGGPAERAGLQQLDTVLQLNERPVEHWKCVELAHEIRSCPSEIILLVWRV | not failed
EGRLVCTVRDMTDRRQKERALRHRSSAMEVASDGIAILDEAGTYQYVNQAHASIYGYDTPGALVGRSWTACYEEAEQQRLEAEAMAALEETGDWRGEARGVREDGSSFPQELTLTVLEDGSIVCVVRDITARKEDERELRSTKQYYEQILEKAVK | failed
EIKLEDVLIKRRSVREYCSSPLTLRELSHILFAAYGVTDERGFKTVPSAGATYPLEIYVNVRDVVGVEEGVYKYIPERHSIVRILDEEVGHELALAALKQMFIAIAPIVLIIAANYERTTRVYGDRGFRYVHMEVGHVAQNVYLMATSLGLGTVSVGAFYDNEIREILKIKEYPLLLMPVG | failed

Sequence | protein production
EKGTTGTGNAALDNIFERKSVRTYLNKGVEKEKIDLMLRAGMSAPSGKDVRPWEFVVVSDRAKLDSMAAALPYAKMLTQARNAIIVCGDSARSFYWYLDCSAAAQNILLAAESMGLGAVWTAAYPYEDRMEVVRKYTHLPENILPLCVIPFGYPATKEQPKQKYDEKKIHYNQY | not failed
EKIWPRDRSASRERSLSPRSDRRSVASSQPAKPTKVTLVKSRKNEEYGLRLASHIFVKEISQDSLAARDGNIQEGDVVLKINGTVTENMSLTDAKTLIERSKGKLKMVVQRDERATLLNVPDLSDSIHSANASERDDISEIQSLASDH | failed
ELHPRTGRLVSLSACGRTARRQQPGQEFNHGLVLSREPLRDGRVFTVRIDRKVNSWSGSIEIGVTALDPSVLDFPSSATGLKGGSWVVSGCSVLRDGRSVLEEYGQDLDQLGEGDRVGVERTVAGELRLWVNGRDCGVAATGLPPRVWAVVDLYGKCTQITVL | not failed
ELTIPKGAVSEIVTLSETFNQMAALLAEREQAILDSRGNRFARLIDGMSDKSFYCSLDPDGQLAQVSEGVTKVLGIPPELLKRKYQRLFSANPLNEKNWEYTDLALKGQNVPPHQIELVDAKGQARRLDVFMQPLVSDT | failed
EMFYFEPVNIKKYLGSIGSELSDEVITIEQFFNLNSEYITIIDARSPREFSEKTISNAVNIPLFLTEEYETIGKLYKHEGKEVAIAKAGIIIQDGIKRIVSESLKLDPNKNLVVFCARGGMRSQSIATILKLLGFKVKRLVGGFKSYNISKT | failed
EMTDLQSTHKNFLFEIEEVGIKNLTYPVLIDQYQTAGLFSFSTSLNKNEKGINMSRILESVEKHYDNGIELEFNTLHQLLRTLQDKMNQNAAGVDVSGKWFFDRYSPVTNIKAVGHADVTYGLAIENHTVTRKELTIQAKVTTLCPCSKEISEYSAHNQRGIVTVKAYLDKNNDVIDDYKDKILDAMEANASSILYPILKRPDEKRVTERAYENPRFVEDLIRLIAADLVEFDWIEGFDIECRNEESIHQHDAFARLKYRK | not failed
EPTFVVAQIKEIIDHPDSDHLHICQAEINDGKTVQIVCGAPNASVGLKTVAALPGAMMPNGSLIFPGKLRGEDSFGMLCSARELALPNAPQVRGIIELSDQVIVGESFDANK | failed
EPVQLTVPQMLAQLQGTDTSLRYYAAWWLGKFGLETATAAERQAIVSALIAALADEADRTELGGYPLRRNAARALGKLGDRQAVPALIECLRCEDFYVREAAAIALGQLGDPRAIAPLQSLLEGGVAMARLVPGRPHLVQPVEAVIESLGHLGATEAIALIEPFLAHEMPRVQFAAARALFQLTGDAVYGDRLLAALNSEDVQLRRTALLDLGAMGYLPAAEAILQAGVEASFKLIALHGILGQQLRQAAPAEQTLSLFQGLDQLL | failed
EQDIVANGGEVLGSETVGDVSLFFLNPVGHIHHWVTDAWGGSAELKFNSSPWFGNQDVAKFAMDAGASYDSQFYGVELKVTF | failed
EQQGKFDWMLRDLYDGVPGIEMIVVLSADGLRIARYSGDPDAADRVAAACAGLQSLASAVSQEIPTSDGDMKMVLIEMNGGYFYLMAAGPNAYLAVLSDVRCEPGRMGLSMADLVARIGPHLTSPARR | failed
EQYGDLPPRVFECRLAMVQPSSVVSGNNRWSTAANDMLKTVAQCGLIDIEVYSLFNNVAAVLIHMRDGIINDKLVELMLCRRSDEDYMSRKDHDFRLRRQ | failed
ERIRYESQIKRFNRIMDTTMENIPAGIVVKDIENDFRYIYRNRESYNRDISSENAIGMNDFDYYPPEMAQQKRKEDMEIAATGKGMHWIMEGKDKNGNLLILDKQKIMVESEDFSPIIVSIEWDIT | failed
ERKRREKRLEETSSRLEALFENSPDMIDVLDADGTICEVNQRFCAELGYDESEVLGRSIWEFDLMFDAEDVQTQLSGFSVDERRKFEGLYERRDGSTMSVEVHLLRFNLEGEDRFLAISRDIT | not failed
ERNKTLYWGGALWSPPSNWNPFTPWNAVAGTIGLVYEPLFLYDPLNDKFEPWLAEKGEWVSNNEYVLTLRKGLRWQDGVPLTADDVVFTFEIAKKYTGISYSPVWNWLGRIERVDERTLKFVFSDPRYQEWKQMLINTPIVPKHIWENKTEEEVLQAANENPVGSGPYYVESWADDRCVFKKNGNWWGIRELGYDPKPERIVELRVLSNNVAVGMLMKGELDWSNFFLPGVPVLKKAYGIVTWYENAPYMLPANTAGIYINVNKYPLSIPEFRRAMAYAINPEKIVTRAYENMVTAANPAGILPLPGYMKYYPKEVVDKYGFKYDPEMAKKILDELGFKDVNKDGFREDPNGKPFKLTIECPYGWTDWMVSIQSIAEDLVKVGINVEPKYPDYSKYADDLYGGKFDLILNNFTTGVSATIWSYFNGVFYPDAVESEYSYSGNFGKYANPEVETLLDELNRSNDDAKIKEVVAKLSEILLKDLPFIPLWYNGAWFQASEAVWTNWPTEKNPYAVPIGWNGWWQLTGIKTLFGIEAK | not failed
ESEPYVRLTTLRQLHQVMADMNTARSLADTLQTVADGVVNGLGYELACVNLVRPDGDLVVAAFAGNSAAEALITGRVGSRVSWDRRLDMGEAWGDLRFIPHTEGWVLDEDDVPQWYTDGPEPRFEDEWHPSDRLFAPMYTPGVQGASCGELIGVLSVDRPRNGRKPGAWGREALQMYAFQAAIAISNARLRANMQRALVRLEREQQALRASEESFRQAFEYAPS | failed
ETSDQRKAEEHIEKEAKYLASLLDAGNLNNQANEKIIKDAGGALDVSASVIDTDGKVLYGSNGRSADSQKVQALVSGHEGILSTTDNKLYYGLSLRSEGEKTGYVLLSASEKSDGLKGE | not failed

— a protein production outcome set (Wang et al. 2014)
